This note sets out measurements from patent US20140056907A1 (Regeneron, published 2014).

Broadly, the EC50 is the concentration giving half of the maximal effect. The low end stands for higher potency in that assay, the high end for lower potency in that assay.

Where only a bound is given, the exact number is not on record here.

Experiment [1] deals with T1, human ASIC1/ASIC3 channels (co-expressed human ASIC1a and human ASIC3) (human, UniProt Q9UHC3 1-531).
T1 construct: whole, on cells; 3T3 cells co-expressing both subunits; also called 3T3/hASIC1/3; 3T3-hASIC1/ASIC3
T1 sequence 1: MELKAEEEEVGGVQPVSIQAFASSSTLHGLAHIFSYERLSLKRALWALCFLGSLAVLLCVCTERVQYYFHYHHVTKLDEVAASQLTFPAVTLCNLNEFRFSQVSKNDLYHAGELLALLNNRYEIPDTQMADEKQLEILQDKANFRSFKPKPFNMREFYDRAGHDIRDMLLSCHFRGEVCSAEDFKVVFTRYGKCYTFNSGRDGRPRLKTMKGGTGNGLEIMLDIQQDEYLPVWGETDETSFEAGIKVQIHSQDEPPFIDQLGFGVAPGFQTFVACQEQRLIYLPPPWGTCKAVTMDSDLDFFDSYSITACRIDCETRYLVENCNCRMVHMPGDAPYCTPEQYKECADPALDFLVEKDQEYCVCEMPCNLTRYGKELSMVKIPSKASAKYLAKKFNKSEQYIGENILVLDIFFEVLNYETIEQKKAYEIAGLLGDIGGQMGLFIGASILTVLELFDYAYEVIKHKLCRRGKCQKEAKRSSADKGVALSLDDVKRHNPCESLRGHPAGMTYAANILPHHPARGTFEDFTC
T1 sequence 2: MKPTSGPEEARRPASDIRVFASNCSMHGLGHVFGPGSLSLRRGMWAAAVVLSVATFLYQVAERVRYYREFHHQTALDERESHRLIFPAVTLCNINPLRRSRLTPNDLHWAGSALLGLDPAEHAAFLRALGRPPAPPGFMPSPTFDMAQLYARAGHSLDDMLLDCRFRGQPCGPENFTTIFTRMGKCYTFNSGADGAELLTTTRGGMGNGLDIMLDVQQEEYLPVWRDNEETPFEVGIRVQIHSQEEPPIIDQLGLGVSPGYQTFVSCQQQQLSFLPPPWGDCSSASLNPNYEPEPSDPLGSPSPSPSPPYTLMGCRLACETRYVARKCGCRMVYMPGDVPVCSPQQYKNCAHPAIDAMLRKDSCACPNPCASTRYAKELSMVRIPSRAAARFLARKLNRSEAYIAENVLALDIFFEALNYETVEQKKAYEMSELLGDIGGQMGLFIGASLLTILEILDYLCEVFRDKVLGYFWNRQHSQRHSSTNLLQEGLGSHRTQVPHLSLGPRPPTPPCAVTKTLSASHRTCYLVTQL
Briefly: FACS, 3T3/hASIC1/3 cells, 10 nM antibody. The source says: (§1) For these experiments, four cell lines were constructed: (a) a mouse fibroblast 3T3 cell line stably transfected to overexpress full length human ASIC3 (3T3/hASIC3; amino acids 1-531 of NCBI accession number NP_{—}004760.1), (b) a 3T3 cell line stably transfected to co-express full length human ASIC1a and human ASIC3 (3T3/hASIC1/3; amino acids 1-528 of NCBI accession number NP_{—}001086.2 and amino acids 1-531 of NCBI accession number NP_{—}004760.1), (c) […] a stably transfected 3T3 cell line expressing the full-length mouse ASIC3 channel (3T3/mASIC3; amino acids 1-530 of NCBI accession number NP_{—}892045.2), and (d) a 3T3 cell line stably transfected to co-express full length mouse ASIC1a and mouse ASIC3 (3T3/mASIC1/3; amino acids 1-526 of NCBI accession number NP_{—}033727 and amino acids 1-530 of NCBI accession number NP_{—}892045.2). Antibody binding was determined using flow cytometry (FACS).
(§2) To perform the FACS binding experiments, adherent cells were collected with cold Millipore Accutase 3-5 minutes, spun and resuspended in ice-cold FACS buffer (PBS, 2% HI-FBS and 0.09% Na-azide). Anti-ASIC1 antibody at final concentrations of 10 nM was added for 20-30 minutes on ice. Cells were washed with 900 μL ice-cold FACS buffer, spun, and resuspended in 100 μL ice-cold FACS buffer. A secondary antibody which recognizes human Fc (Jackson Immuno Research, #109-136-098) and is conjugated to allophycocyanin, was then added to the cell mixture at a final concentration of 2.5 ug/mL. After incubating for 20 minutes on ice, the cells were washed and resuspended in FACS buffer, then sorted and analyzed on a flow cytometer (FACSCanto II, BD Biosciences, San Jose, Calif.) to determine relative binding by the candidate antibodies to the tested cell lines. Histograms of cells stained with anti-ASIC1 antibodies were compared with those of cells stained with secondary antibody alone. Percentage of ASIC1 signal over secondary antibody alone was calculated using FlowJo software (Tree Star, Ashland, Oreg.).

In experiment [2] the target is T2, human ASIC1 (human, UniProt P78348 1-528).
T2 construct: Ion channel subunit expressed on 3T3 (3T3/hASIC1) or HEK293 cells (HEK/hASIC1; HEK293 CL:1F10 transient); also called hASIC1; human ASIC1a
T2 sequence: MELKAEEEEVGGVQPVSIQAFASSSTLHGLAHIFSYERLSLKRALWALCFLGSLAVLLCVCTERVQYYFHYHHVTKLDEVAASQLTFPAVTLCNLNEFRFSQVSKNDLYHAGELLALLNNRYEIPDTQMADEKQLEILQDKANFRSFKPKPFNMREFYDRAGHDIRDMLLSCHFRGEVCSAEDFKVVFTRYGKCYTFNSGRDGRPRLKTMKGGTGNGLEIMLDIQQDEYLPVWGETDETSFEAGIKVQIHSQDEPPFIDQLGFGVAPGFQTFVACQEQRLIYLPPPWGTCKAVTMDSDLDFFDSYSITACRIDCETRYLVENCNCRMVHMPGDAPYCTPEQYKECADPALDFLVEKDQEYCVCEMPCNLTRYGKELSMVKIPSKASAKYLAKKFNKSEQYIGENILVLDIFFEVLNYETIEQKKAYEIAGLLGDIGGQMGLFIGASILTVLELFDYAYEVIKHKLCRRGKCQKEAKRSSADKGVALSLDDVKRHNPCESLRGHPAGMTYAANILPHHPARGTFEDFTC
Briefly: FACS titration, 3T3/hASIC1 cells. The method, then: To perform the FACS binding experiments, adherent cells were collected using 1 mM EDTA in PBS, then washed, and re-suspended in cold PBS containing 5% FBS. For each binding experiment, each anti-ASIC1 antibody ([…] or ND7 cells) was added to 250,000 cells in 500 μL of PBS with 5% FBS. After incubation for 20 minutes at room temperature, a secondary antibody which recognizes human Fc (Cat. No. 109-136-098, Jackson ImmunoResearch Laboratories, Inc., West Grove, Pa.) or mouse Fc (Cat. No. 550826, BD Biosciences, San Jose, Calif.) and is conjugated to allophycocyanin, was then added to the cell mixture at a final concentration of 13.3 nM. After incubating for 20 minutes on ice, the cells were washed and resuspended in PBS containing 5% FBS, then sorted and analyzed on a flow cytometer (FACSCalibur, BD Biosciences, San Jose, Calif.) to determine relative binding by the candidate antibodies to the tested cell lines. Histograms of cells stained with anti-ASIC1 antibodies were compared with those of cells stained with secondary antibody alone. Percentage of ASIC1 signal over secondary antibody alone was calculated using FlowJo software (Tree Star, Ashland, Oreg.).

Another experiment deals with T3, human ASIC3 (human, UniProt Q9UHC3 1-531).
T3 construct: whole, on cells; Expressed on 3T3 cells (3T3/hASIC3) or HEK293 cells (HEK/hASIC3-QCells); also called hASIC3
T3 sequence (looked up): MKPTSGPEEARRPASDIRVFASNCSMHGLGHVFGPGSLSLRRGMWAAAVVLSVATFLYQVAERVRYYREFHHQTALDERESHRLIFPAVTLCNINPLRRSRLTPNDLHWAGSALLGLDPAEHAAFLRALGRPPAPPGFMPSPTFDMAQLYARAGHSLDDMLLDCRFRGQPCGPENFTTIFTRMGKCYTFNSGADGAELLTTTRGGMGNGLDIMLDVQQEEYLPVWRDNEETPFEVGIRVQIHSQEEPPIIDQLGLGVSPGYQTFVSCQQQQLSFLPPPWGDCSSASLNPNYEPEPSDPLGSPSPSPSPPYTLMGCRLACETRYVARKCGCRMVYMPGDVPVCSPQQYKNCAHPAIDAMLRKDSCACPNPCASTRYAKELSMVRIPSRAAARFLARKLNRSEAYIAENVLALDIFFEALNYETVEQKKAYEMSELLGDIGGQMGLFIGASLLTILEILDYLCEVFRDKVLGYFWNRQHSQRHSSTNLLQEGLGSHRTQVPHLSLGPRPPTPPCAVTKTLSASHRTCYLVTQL
Nature of the experiment: FACS, 3T3/hASIC3 cells.
Description: as §1, §2
In general terms: A flow cytometer gives signals particle by particle.

Experiment [3] concerns the target T2, human ASIC1. Briefly: cell-based or functional assay.
Another experiment deals with T4, mouse ASIC1a (mouse, UniProt Q6NXK8 1-526).
T4 sequence (looked up): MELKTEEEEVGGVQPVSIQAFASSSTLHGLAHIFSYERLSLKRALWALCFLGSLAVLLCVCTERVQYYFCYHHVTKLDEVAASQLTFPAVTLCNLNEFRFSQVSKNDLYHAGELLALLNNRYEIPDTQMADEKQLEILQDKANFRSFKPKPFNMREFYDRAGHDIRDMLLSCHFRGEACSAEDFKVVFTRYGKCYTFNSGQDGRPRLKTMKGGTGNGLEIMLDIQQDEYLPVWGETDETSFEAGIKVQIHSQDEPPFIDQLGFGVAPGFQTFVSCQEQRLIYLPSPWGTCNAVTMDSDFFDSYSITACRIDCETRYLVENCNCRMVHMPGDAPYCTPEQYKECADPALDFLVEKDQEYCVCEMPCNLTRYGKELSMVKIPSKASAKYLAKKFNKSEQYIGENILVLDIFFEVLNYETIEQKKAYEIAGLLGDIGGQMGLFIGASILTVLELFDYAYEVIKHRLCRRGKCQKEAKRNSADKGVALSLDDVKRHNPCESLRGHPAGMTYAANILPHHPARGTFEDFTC
Nature of the experiment: cell-based or functional assay.

B1: H4H6721N2 (antibody, human IgG4, V domains shown)
VH: EVQLLASGGGLVQPGGSLRLSCAASGFTFSSFAMSWVRQAPGKGLEWVSGISGSGVSTYYADSVKGRFTISRDNSKNTLYLQMNSLRAEDTAAYYCAKEAYKWQPWGQGTLVTVSS
VL: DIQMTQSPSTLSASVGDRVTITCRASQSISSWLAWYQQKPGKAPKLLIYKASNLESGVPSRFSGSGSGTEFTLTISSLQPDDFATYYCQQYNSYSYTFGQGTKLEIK
For B1, the binding result in experiment [1] is “binds”; with human ASIC3, “no binding (tested: 10 nM; gated lower than 1%)”. Moreover, the half-maximal effective concentration (EC50) with human ASIC1 [2] stood at 1.7 nM. The “apparent IC50, human ASIC1 current, Q-Patch” value in the experiment with human ASIC1 [3] is under 1 nM.

B2: H3M7118N (antibody, V domains shown)
VH: EVQLLESGGGLVQPGGSLRLSCAASGFTFRNYAMSWVRQAPGKGLEWVSAINGGGDSTYYADSVKGRFTISRDNSKNTLYLQMNSLRAEDTAVYYCAKEEGDWNYVGYGYYYYYGMDVWGQGTTVTVSS
VL: DIQMTQSPSSMSASVGDRVTITCRASQGISSWLAWYQQKPGKAPKLLIYAASSLQSGVPSRFSGSGSGTDFTLTIRSLQPEDFATYYCQQANSFPYTFGQGTKLEIK
notes: Chimeric: human variable, mouse constant domains; H3M prefix marks the Fc, isotype not spelled out
Molecule B2 yielded a concentration giving a half-maximal response (EC50) with human ASIC1 [2] of over 67 nM. The “apparent IC50, mouse ASIC1 current, Q-Patch” value with mouse ASIC1a is under 25 nM. Besides, the “apparent IC50, human ASIC1 current, Q-Patch” value with human ASIC1 [3] was at most 10 nM.
